Measurements published in PMC10869282.

Key:
[1] = target: cis-epoxysuccinate hydrolase producing L(+)-tartaric acid from Rhodococcus opacus (RhCESH[L]) (Rhodococcus opacus); assay: SEC; gel filtration of the purified enzyme against a molecular standard mixture (ovalbumin, chymotrypsin, ribonuclease A, aprotinin); aggregation state of RhCESH[L] unchanged in the presence or absence of DTT
[2] = target: cis-epoxysuccinate hydrolase producing L(+)-tartaric acid from Klebsiella sp. BK-58 (KlCESH[L]) (Klebsiella sp. BK-58); assay: as above

Substance	stoichiometry N [1]	stoichiometry N [2]
cis-epoxysuccinate hydrolase producing L(+)-tartaric acid from Rhodococcus opacus (RhCESH[L]) (enzyme)	2	
cis-epoxysuccinate hydrolase producing L(+)-tartaric acid from Klebsiella sp. BK-58 (KlCESH[L]) (enzyme)		2
